Here are results for one molecule from patent US8034783B2, “Prodomain modulators of ADAM 10” (Biozyme, Inc., priority 2006, dated 2011).

For this assay, the target named is T1, ADAM 8 (mouse) catalytic domain (Mus musculus, UniProt Q05910).
T1 construct: The ADAM 8 catalytic domain was expressed and purified from E. coli as described (22); made in house; host or cells: E. coli
T1 sequence (Q05910 196-395 limits assumed): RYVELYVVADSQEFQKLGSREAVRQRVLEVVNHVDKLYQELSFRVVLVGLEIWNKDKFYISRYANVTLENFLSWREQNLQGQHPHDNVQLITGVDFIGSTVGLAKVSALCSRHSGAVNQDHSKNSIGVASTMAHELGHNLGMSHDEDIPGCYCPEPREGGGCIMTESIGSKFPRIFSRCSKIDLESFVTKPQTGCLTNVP
Nature of the assay: Inhibition assay with ADAM 8 catalytic domain. The class given is biochemical. The note with it: fluorescamine assay; read-out: inhibition constant, ADAM 8 (mouse). The protocol: Inhibition assays with ADAM 8. The ADAM 8 catalytic domain was expressed and purified from E. coli as described (22). A substrate based on the L-selectin cleavage site, Dnp-INorIeuQKLDKSFSMIKE-NH2 (SEQ ID NO 20), was used to monitor enzyme activity with a fluorescamine assay. From a concentrated 50 mM solution in DMSO, the substrate was diluted 1:500 in 25 mM HEPES, pH 8.0, 0.0006% Brij-35. To 100 μl of diluted substrate was added either 5 μl of buffer (Tris, pH 8.0, 150 mM KCl) or 5 μl of ADAM10 prodomain (1-10 μM). Zero time points were taken by diluting 12.5 μl of the reaction mixture into 100 μl of fluorescamine buffer (50 mM HEPES, pH 8.0, 0.2 M NaCl, 0.01 M CaCl2, 0.01% Brij-35) in a 96-well black-coated plate. Before measuring fluorescence, 3 μl of a 1% solution of fluorescamine in DMSO was added to each well. The plate was allowed to incubate for 10 min in the dark before measuring fluorescence (excitation wavelength at 390 nm, emission wavelength at 485 nm). For assays with TACE and ADAM8 prodomains, a fluorescent substrate was used to monitor activity at concentrations of prodomains ranging from 1-4.7 μM.
Calculation of inhibition constants. The amount of activity was calculated by subtracting the ADAM 10 prodomain control from the ADAM 10 prodomain with enzyme. […]

B1: C173S ProADAM 10 23-213 (C-terminal His tag): mouse ADAM 10 prodomain 23-213 with cysteine 173 mutated to serine, C-terminal His tag (protein, UniProt O35598 23-213, looked up, variant C173S)
chain: NPLNKYIRHYEGLSYNVDSLHQKHQRAKRAVSHEDQFLLLDFHAHGRQFNLRMKRDTSLFSDEFKVETSNKVLDYDTSHIYTGHIYGEEGSFSHGSVIDGRFEGFIKTRGGTFYIEPAERYIKDRILPFHSVIYHEDDINYPHKYGPQGGSADHSVFERMRKYQMTGVEEGARAHPEKHAASSGPELLRKK
modifications: pro-form C-terminal His tag
notes: mouse ADAM 10 prodomain 23-213 with cysteine 173 mutated to serine, C-terminal His tag
For B1, the Ki is over 10 µM.
